The data set is described as follows: self-splicing fitness, log relative to wild type (ln ratio); higher = more splicing; Tetrahymena group I intron in knt gene, E. coli kanamycin selection, DiMSum; sequences stand for … in CUCUCU…GGAGGGAAAAGUUAUCAGGCAUGCACCUGGUAGCUAGUCUUUAAACCAAUAGAUUGCAUCGGUUUAAAAGGCAAGACCGUCAAAUUGCGGGAAAGGGGUCAACAGCCGUUCAGUACCAAGUCUCAGGGGAAACUUUGAGAUGGCCUUGCAAAGGGUAUGGUAAUAAGCUGACGGACAUGGUCCUAACCACGCAGCCAAGUCCUAAGUCAACAGAUCUUCUGUUGAUAUGGAUGCAGUUCACAGACUAAAUGUCGGUCGGGGAAGAUGUAUUCUUCUCAUAAGAUAUAGUCGGACCUCUCCUUAAUGGGAGCUAGCGGAUGAAGUGAUGCAACACUGGAGCCGCUGGGAACUAAUUUGUAUGCGAAAGUAUAUUGAUUAGUUUUGGAGUACUCGUGGUCG
The method, boiled down:
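Fitness was computed with DiMSum as the error-weighted combination of replicate fold changes, kanamycin versus none, each normalised to wild type. The library randomised all eight intron nucleotides of the P1ex region, with the intron placed in the knt kanamycin-resistance gene on pET-22b(+) in E. coli BL21(DE3). Six replicate transformations were grown overnight at 37°C or 30°C on LB agar with or without 25 μg/mL kanamycin, plus 100 μg/mL carbenicillin, 50 μM IPTG and 0.2% rhamnose. Pooled colonies were amplicon-sequenced on an Illumina HiSeq 2500.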

± gives the uncertainty stated by the source.

Experimental findings from the supplement of paper PMC7877785 are described below.

Turning to ACGCAGCAAUAUUACGUCAU, the “self-splicing fitness (ln)” value was -3.44 ± 0.12 (30 °C) and -1.52 ± 0.11 (37 °C).

For the sequence ACGCAGCAAUAUUACGUCCC, the “self-splicing fitness (ln)” value (37 °C) was -0.268 ± 0.48. As for ACGCAGCAAUAUUACGUUCU, the “self-splicing fitness (ln)” value reads like this: (30 °C) -1.1 ± 0.082; (37 °C) -0.958 ± 0.09. In the case of ACGCAGCAAUAUUACGUUUU, the “self-splicing fitness (ln)” value (30 °C) was -3.43 ± 0.12 and the “self-splicing fitness (ln)” value (37 °C) was -2.11 ± 0.11. ACGGAGCAAUAUUACGAAAC: the “self-splicing fitness (ln)” value (37 °C) was -1.46 ± 0.31.

For ACGGAGCAAUAUUACGAACG, the “self-splicing fitness (ln)” value was -2.54 ± 0.16 (30 °C) and -0.693 ± 0.16 (37 °C). Turning to ACGGAGCAAUAUUACGAAUU, the “self-splicing fitness (ln)” value runs as follows: (30 °C) -3.52 ± 0.26; (37 °C) -2.5 ± 0.27. On to ACGGAGCAAUAUUACGACUU, for which the “self-splicing fitness (ln)” value is -2.69 ± 0.1 (30 °C) and -1.37 ± 0.11 (37 °C). As for ACGGAGCAAUAUUACGAUCC, the “self-splicing fitness (ln)” value (37 °C) was -1.94 ± 0.47. With ACGGAGCAAUAUUACGCAAC, under “37 °C”, the “self-splicing fitness (ln)” value was -2.4 ± 0.35. Regarding ACGGAGCAAUAUUACGCAGG, the “self-splicing fitness (ln)” value by setting is: (30 °C) -1.72 ± 0.15; (37 °C) -2.41 ± 0.35. The like results for ACGGAGCAAUAUUACGCAGU were, in that order, -3.19 ± 0.34 and -2.35 ± 0.49. Consider ACGGAGCAAUAUUACGCAUG, for which the “self-splicing fitness (ln)” value (30 °C) is -2.65 ± 0.2 and the “self-splicing fitness (ln)” value (37 °C) was -2.28 ± 0.23.

In the case of ACGGAGCAAUAUUACGCCGA, the “self-splicing fitness (ln)” value by setting is: (30 °C) -1.94 ± 0.25; (37 °C) -1.49 ± 0.19. Consider ACGGAGCAAUAUUACGCGCA, for which the “self-splicing fitness (ln)” value by setting is: (30 °C) -1.39 ± 0.23; (37 °C) -1.64 ± 0.17. For ACGGAGCAAUAUUACGCGUG the same measures were -2.24 ± 0.12 and -0.943 ± 0.11. Consider ACGGAGCAAUAUUACGCUCG, for which the “self-splicing fitness (ln)” value is -1.67 ± 0.14 (30 °C) and -1.01 ± 0.16 (37 °C). On to ACGGAGCAAUAUUACGGAAG, for which the “self-splicing fitness (ln)” value is, setting by setting: (30 °C) -4.44 ± 0.46; (37 °C) -1.89 ± 0.46. For ACGGAGCAAUAUUACGGAGA, the “self-splicing fitness (ln)” value (37 °C) is -2.01 ± 0.46. On to ACGGAGCAAUAUUACGGCGU, for which the “self-splicing fitness (ln)” value is -2.38 ± 0.2 (30 °C) and -1.48 ± 0.19 (37 °C). As to ACGGAGCAAUAUUACGGGCA, the “self-splicing fitness (ln)” value (30 °C) was -2.06 ± 0.42. For ACGGAGCAAUAUUACGGGCC, the “self-splicing fitness (ln)” value (30 °C) is -2.53 ± 0.48 and the “self-splicing fitness (ln)” value (37 °C) is -1.06 ± 0.4.

Take ACGGAGCAAUAUUACGGGUC: the “self-splicing fitness (ln)” value (37 °C) was -2.58 ± 0.38. In the case of ACGGAGCAAUAUUACGUAUU, the “self-splicing fitness (ln)” value (30 °C) was -3.44 ± 0.48. As for ACGGAGCAAUAUUACGUCCC, the “self-splicing fitness (ln)” value (30 °C) is -1.47 ± 0.25 and the “self-splicing fitness (ln)” value (37 °C) was -0.893 ± 0.2. The like results for ACGGAGCAAUAUUACGUGUU were, in that order, -3.23 ± 0.13 and -2.56 ± 0.16. Turning to ACGUAGCAAUAUUACGAGGC, the “self-splicing fitness (ln)” value (37 °C) is -2.11 ± 0.39. Consider ACGUAGCAAUAUUACGAUAU, for which the “self-splicing fitness (ln)” value by setting is: (30 °C) -1.39 ± 0.1; (37 °C) -1.04 ± 0.15.

Consider ACGUAGCAAUAUUACGCGAG, for which the “self-splicing fitness (ln)” value reads like this: (30 °C) -3.43 ± 0.19; (37 °C) -0.232 ± 0.11. As for ACGUAGCAAUAUUACGCGGU, the “self-splicing fitness (ln)” value is, setting by setting: (30 °C) -3.63 ± 0.16; (37 °C) -2.33 ± 0.17. In the case of ACGUAGCAAUAUUACGCGUU, the “self-splicing fitness (ln)” value (37 °C) is -2.49 ± 0.24. Take ACGUAGCAAUAUUACGCUCU: the “self-splicing fitness (ln)” value by setting is: (30 °C) -0.479 ± 0.12; (37 °C) -0.414 ± 0.15.

Consider ACGUAGCAAUAUUACGCUGU, for which the “self-splicing fitness (ln)” value (30 °C) was -2.65 ± 0.17 and the “self-splicing fitness (ln)” value (37 °C) was -2.34 ± 0.21. The like results for ACGUAGCAAUAUUACGCUUG were, in that order, -1.26 ± 0.083 and -1.28 ± 0.093. For ACGUAGCAAUAUUACGGAGA the same measures were -3.36 ± 0.44 and -2.08 ± 0.24. As for ACGUAGCAAUAUUACGGCUA, the “self-splicing fitness (ln)” value reads like this: (30 °C) -1.9 ± 0.12; (37 °C) -2.26 ± 0.18. Take ACGUAGCAAUAUUACGGGGC: the “self-splicing fitness (ln)” value (30 °C) was -4.11 ± 0.14 and the “self-splicing fitness (ln)” value (37 °C) was -2.73 ± 0.12. For ACGUAGCAAUAUUACGGGUG the same measures were -2.67 ± 0.086 and -1.18 ± 0.085. For ACGUAGCAAUAUUACGGUCG the same measures were -1.23 ± 0.093 and -0.666 ± 0.12. For ACGUAGCAAUAUUACGGUCU, the “self-splicing fitness (ln)” value reads like this: (30 °C) -0.728 ± 0.078; (37 °C) -0.139 ± 0.097. For ACGUAGCAAUAUUACGUCCG the same measures were -1.63 ± 0.12 and -0.705 ± 0.11. ACGUAGCAAUAUUACGUCGC: the “self-splicing fitness (ln)” value is -3.64 ± 0.35 (30 °C) and -1.91 ± 0.27 (37 °C). On to ACGUAGCAAUAUUACGUUUA, for which the “self-splicing fitness (ln)” value (30 °C) is -2.63 ± 0.15 and the “self-splicing fitness (ln)” value (37 °C) was -2.73 ± 0.17. For ACUAAGCAAUAUUACGAACA the same measures were -1.86 ± 0.18 and -0.417 ± 0.19.

On to ACUAAGCAAUAUUACGAAUC, for which the “self-splicing fitness (ln)” value is, setting by setting: (30 °C) -3.41 ± 0.21; (37 °C) -1.05 ± 0.17. As for ACUAAGCAAUAUUACGACAC, the “self-splicing fitness (ln)” value reads like this: (30 °C) -0.549 ± 0.1; (37 °C) -0.813 ± 0.13. For ACUAAGCAAUAUUACGAUCU the same measures were -0.809 ± 0.092 and 0.314 ± 0.1. The like results for ACUAAGCAAUAUUACGAUGC were, in that order, -1.53 ± 0.091 and -0.792 ± 0.11. Regarding ACUAAGCAAUAUUACGCAGU, the “self-splicing fitness (ln)” value is, setting by setting: (30 °C) -4.72 ± 0.28; (37 °C) -3.25 ± 0.46. For the sequence ACUAAGCAAUAUUACGCAUC, the “self-splicing fitness (ln)” value (30 °C) was -3.13 ± 0.28 and the “self-splicing fitness (ln)” value (37 °C) is -1.54 ± 0.2. The like results for ACUAAGCAAUAUUACGCCCA were, in that order, -0.779 ± 0.11 and -0.482 ± 0.13. The like results for ACUAAGCAAUAUUACGCCGA were, in that order, -1.86 ± 0.18 and -0.197 ± 0.16.

For the sequence ACUAAGCAAUAUUACGCCUC, the “self-splicing fitness (ln)” value reads like this: (30 °C) -2.41 ± 0.21; (37 °C) -1.64 ± 0.34.

Turning to ACUAAGCAAUAUUACGCGAG, the “self-splicing fitness (ln)” value is, setting by setting: (30 °C) -1.77 ± 0.082; (37 °C) -0.355 ± 0.089. Regarding ACUAAGCAAUAUUACGCGAU, the “self-splicing fitness (ln)” value (30 °C) is -2.98 ± 0.15 and the “self-splicing fitness (ln)” value (37 °C) was -1.82 ± 0.2.

ACUAAGCAAUAUUACGCGUC: the “self-splicing fitness (ln)” value runs as follows: (30 °C) -4.43 ± 0.41; (37 °C) -2.1 ± 0.22.

As to ACUAAGCAAUAUUACGGCGA, the “self-splicing fitness (ln)” value was -0.131 ± 0.1 (30 °C) and -0.411 ± 0.13 (37 °C).

Consider ACUAAGCAAUAUUACGGCGU, for which the “self-splicing fitness (ln)” value (30 °C) is -0.894 ± 0.078 and the “self-splicing fitness (ln)” value (37 °C) is -0.0271 ± 0.1.

In the case of ACUAAGCAAUAUUACGGGGU, the “self-splicing fitness (ln)” value was -4.13 ± 0.28 (30 °C) and -2.2 ± 0.19 (37 °C). On to ACUAAGCAAUAUUACGGGUA, for which the “self-splicing fitness (ln)” value is, setting by setting: (30 °C) -1.77 ± 0.11; (37 °C) -0.856 ± 0.11. The like results for ACUAAGCAAUAUUACGUCAG were, in that order, -2.63 ± 0.16 and -1.57 ± 0.23. The like results for ACUAAGCAAUAUUACGUGCG were, in that order, -0.891 ± 0.086 and -0.294 ± 0.098.

On to ACUAAGCAAUAUUACGUGGA, for which the “self-splicing fitness (ln)” value by setting is: (30 °C) -2.99 ± 0.14; (37 °C) -1.49 ± 0.11. The like results for ACUAAGCAAUAUUACGUUGU were, in that order, -3.58 ± 0.16 and -2.78 ± 0.18. For ACUCAGCAAUAUUACGAAAA the same measures were -1.32 ± 0.11 and -1.36 ± 0.16. In the case of ACUCAGCAAUAUUACGAACC, the “self-splicing fitness (ln)” value (30 °C) was -0.758 ± 0.097 and the “self-splicing fitness (ln)” value (37 °C) was -0.326 ± 0.1. For ACUCAGCAAUAUUACGAAUG the same measures were -1.17 ± 0.11 and -0.992 ± 0.15. With ACUCAGCAAUAUUACGACGC, the “self-splicing fitness (ln)” value (30 °C) is -0.134 ± 0.074 and the “self-splicing fitness (ln)” value (37 °C) was 0.447 ± 0.088. For ACUCAGCAAUAUUACGACUA the same measures were -0.633 ± 0.12 and -0.128 ± 0.12. Regarding ACUCAGCAAUAUUACGAGCC, the “self-splicing fitness (ln)” value by setting is: (30 °C) -1.32 ± 0.079; (37 °C) -0.908 ± 0.11. Consider ACUCAGCAAUAUUACGAGCG, for which the “self-splicing fitness (ln)” value (30 °C) was -0.49 ± 0.061 and the “self-splicing fitness (ln)” value (37 °C) was -0.185 ± 0.071. ACUCAGCAAUAUUACGAUGU: the “self-splicing fitness (ln)” value is -1.35 ± 0.064 (30 °C) and -0.811 ± 0.074 (37 °C). For ACUCAGCAAUAUUACGAUUG the same measures were -2.74 ± 0.084 and -1.59 ± 0.1. For ACUCAGCAAUAUUACGCACU the same measures were -0.199 ± 0.064 and 0.205 ± 0.079. Regarding ACUCAGCAAUAUUACGCGAG, the “self-splicing fitness (ln)” value runs as follows: (30 °C) -2.93 ± 0.2; (37 °C) -1.21 ± 0.17. ACUCAGCAAUAUUACGCGGA: the “self-splicing fitness (ln)” value (30 °C) is -2.79 ± 0.16 and the “self-splicing fitness (ln)” value (37 °C) is -3.35 ± 0.27.

Regarding ACUCAGCAAUAUUACGCUAG, the “self-splicing fitness (ln)” value (30 °C) was -1.74 ± 0.094 and the “self-splicing fitness (ln)” value (37 °C) was -1.3 ± 0.11. The like results for ACUCAGCAAUAUUACGCUGG were, in that order, -2.43 ± 0.12 and -2.86 ± 0.22.
